# Assay results from patent publication US7361735B2, “LITAF binding site peptides and methods of using the same” (Trustees of Boston University, priority 2003, dated 2008).
# B1: exogenous LITAF: full-length human LITAF (SEQ ID NO. 1) overexpressed from the pCMV-LITAF recombinant vector (protein, listed as Homo sapiens)
# chain: MSVPGPYQAATGPSSAPSAPPSYEETVAVNSYYPTPPAPMPGPTTGLVTGPDGKGMNPPSYYTQPAPIPNNNPITVQTVYVQHPITFLDRPIQMCCPSCNKMIVSQLSYNAGALTWLSCGSLCLLGVHSGLLLHPLLRGCPAGRGPLLSQLQSSPGHLQAFVGLSQTWREPGAAGSPFHLSSSFTPGGGSALVVSPLQGAHLHVFFWGEYVAKLTNLQTPEIAAWSRA
# System: wtTNFβ, TNF-α promoter from −991 to 1
# Assay: Luciferase reporter assay, wild-type TNF-α promoter, WTK-1
# Assay type: cell-based
# Details: WTK-1 cells; normalized to β-gal; LITAF overexpressed alone without LPS stimulation
# Excerpt: FIG. 10 is a graphical representation of the analysis of LITAF function in luciferase reporter constructs. The series of TNF-α promoter DNA fragments were subcloned into the pGL3 basic vector (Pharmacia), a promoterless and enhancerless luciferase reporter gene. One construct, named wtTNFβ, contained TNF-α promoter from −991 to 1. Another one, mtTNFβ1, was a mutant inserted with the promoter from −991 to 1, but lacking the LITAF binding site. WTK-1 cells (grown to 85% confluence) in a 6-well plate at 1.2×10^5 cells/well were co-transfected with 1 μg DNAs including pCMV-LITAF recombinant vector, pVMVβ-gal and pGL3 basic as control by Fugene 6 (Roche Molecular Biochemicals) for 3 hrs, washed with PBS twice, then individually stimulated with LPS or Chariot/peptide complex of 100 ng/ml peptide B (peptide fragment of LITAF representing aa 152-228) or HA as control for 3 hrs, washed with PBS, incubated at 37° C., 5% CO2, o/n. The β-galactosidase gene was included in all transfections. The cells were harvested and lysed approximately 12 hrs after transfection. The promoter activity from each lysate sample was measured using the luciferase reporter assay system (Promega) and normalized to β-gal expression in the same sample, as described in the methods section below.
# The activation of TNF-α gene expression by LITAF was investigated. […]
molecule,measurement,value
B1,"TNF-α promoter activity (luciferase), wild-type promoter/reporter plasmid",2.5 fold
